# Numbering of substitutions follows the chain as printed. Starred links: 1 amine or outer side, 2 acyl side, 3 side chain; linkers in the order of their positions; H or OH if unused. Non-standard residues stand in square brackets, D forms with d. Groups on a side chain read outwards from the residue. No end group written: not given here. *: point of attachment. C20 diacid = O=C(O)CCCCCCCCCCCCCCCCCCC(=O)*; γGlu = O=C(O)[C@H](CCC(=O)[*:2])N[*:1]; εLys = N[C@@H](CCCCN[*:1])C(=O)[*:2]; AEEA = NCCOCCOCC(=O)O; Aib = CC(C)(N)C(=O)O
# T1: GIP receptor (human (printed as hGIPR), UniProt P48546 22-466)
# T1 sequence (looked up): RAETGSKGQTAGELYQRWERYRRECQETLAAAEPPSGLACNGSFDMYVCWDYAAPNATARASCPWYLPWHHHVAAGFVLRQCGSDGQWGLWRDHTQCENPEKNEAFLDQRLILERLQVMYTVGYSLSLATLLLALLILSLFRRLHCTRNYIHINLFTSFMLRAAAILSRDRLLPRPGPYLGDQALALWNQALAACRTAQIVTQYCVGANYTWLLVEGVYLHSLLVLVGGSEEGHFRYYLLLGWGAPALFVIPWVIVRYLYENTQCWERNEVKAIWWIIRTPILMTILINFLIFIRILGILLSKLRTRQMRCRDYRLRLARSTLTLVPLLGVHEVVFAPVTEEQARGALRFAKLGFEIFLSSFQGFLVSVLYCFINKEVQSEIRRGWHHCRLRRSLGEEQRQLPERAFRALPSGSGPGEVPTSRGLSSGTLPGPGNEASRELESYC
# T2: NPY2 receptor (human (printed as hNPY2R), UniProt P49146 1-381)
# T2 sequence (looked up): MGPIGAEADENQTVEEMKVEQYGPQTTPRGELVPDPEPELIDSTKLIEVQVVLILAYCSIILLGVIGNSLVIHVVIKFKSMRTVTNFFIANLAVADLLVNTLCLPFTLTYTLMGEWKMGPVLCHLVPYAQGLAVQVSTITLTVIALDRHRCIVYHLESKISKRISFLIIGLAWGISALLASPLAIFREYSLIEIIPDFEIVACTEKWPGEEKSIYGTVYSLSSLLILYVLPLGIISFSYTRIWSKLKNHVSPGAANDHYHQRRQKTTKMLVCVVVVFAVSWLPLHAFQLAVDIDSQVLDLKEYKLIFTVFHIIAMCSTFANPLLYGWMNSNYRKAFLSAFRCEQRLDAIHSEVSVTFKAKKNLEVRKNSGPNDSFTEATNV
# B1: Compound 227 (peptide)
# peptide: YXEGTFTSDYSIXLEKQAQXAFVEWLIKGGPSEGQSLRHYYNWLTRQRY
# modifications: Aib at 2, 13, 20; K28 side chain carries C20DA-gGlu-gGlu-gGlu-gGlu-gGlu-gGlu-eLys; C-terminal amide
# B2: Compound 236 (peptide)
# peptide: B1 peptide with Q35A
# modifications: Aib at 2, 13, 20; NMeR (N-methyl-L-arginine) at 48; K28 side chain carries C20DA-gGlu-gGlu-gGlu-gGlu-gGlu-gGlu-eLys; C-terminal amide
# B3: Compound 238 (peptide)
# peptide: B1 peptide with E33S, Q35A
# modifications: Aib at 2, 13, 20; K28 side chain carries C20DA-gGlu-gGlu-gGlu-gGlu-gGlu; C-terminal amide
# B4: Compound 229 (peptide)
# peptide: B1 peptide with E33S, Q35A
# modifications: Aib at 2, 13, 20; K28 side chain carries C20DA-gGlu-gGlu-gGlu-gGlu-gGlu-OEG-OEG; C-terminal amide
# Biological target: GLP-1 receptor (human (printed as hGLP1R), UniProt P43220 24-463)
# Assay: cell-based or functional assay
Binder,EC50 hGLP1R 0.5% hP (CreLuc) [nM],EC50 hGLP1R 100% hP (CreLuc) [nM]
Y[Aib]EGTFTSDYSI[Aib]LEKQAQ[Aib]AFVQWLIK([AEEA-AEEA-Glu-Glu-Glu-Glu-C20 diacid])GGPSEGASLRHYYNWLTRQRY-NH2 (also: TFA salt) [Compound 239],0.11,4.76
Y[Aib]EGTFTSDYSI[Aib]LEKQAQ[Aib]AFVQWLIKGGPSEGASLRHYYNWLTRQRY-NH2 (not fully specified (residue 28); also: TFA salt) [Compound 243],0.12,5.96
Y[Aib]EGTFTSDYSI[Aib]LEKQAQ[Aib]AFVEWLIK([γGlu-γGlu-γGlu-γGlu-γGlu-γGlu-C20 diacid])GGPSSGASLRHYYNWLTRQRY-NH2 (also: TFA salt) [Compound 235],0.12,4.64
Y[Aib]EGTFTSDYSI[Aib]LEKQAQ[Aib]AFVQWLIK([εLys-γGlu-γGlu-γGlu-γGlu-γGlu-γGlu-γGlu-C20 diacid])GGPSEGASLRHYYNWLTRQRY-NH2 (also: TFA salt) [Compound 224],0.13,3.24
Y[Aib]EGTFTSDYSI[Aib]LEKQAQ[Aib]AFVQWLIK([εLys-γGlu-γGlu-γGlu-γGlu-γGlu-C20 diacid])GGPSEGASLRHYYNWLTRQRY-NH2 (also: TFA salt) [Compound 242],0.13,4.69
Y[Aib]EGTFTSDYSI[Aib]LEKQAQ[Aib]AFIEWLIK([AEEA-AEEA-γGlu-γGlu-γGlu-γGlu-C20 diacid])GGPSEGASLRHYYNWLTRQRY-NH2 (also: TFA salt) [Compound 231],0.14,3.28
B1,0.13,3.07
B2,0.26,3.42
B3,0.1,2.55
B4,0.1,3.31

# Biological target: T1, GIP receptor
# Assay: cell-based or functional assay
Binder,EC50 hGIPR 0.5% hP (CreLuc) [nM],EC50 hGIPR 100% hP (CreLuc) [nM]
Y[Aib]EGTFTSDYSI[Aib]LEKQAQ[Aib]AFVQWLIK([AEEA-AEEA-Glu-Glu-Glu-Glu-C20 diacid])GGPSEGASLRHYYNWLTRQRY-NH2 (also: TFA salt) [Compound 239],0.35,1.55
Y[Aib]EGTFTSDYSI[Aib]LEKQAQ[Aib]AFVQWLIKGGPSEGASLRHYYNWLTRQRY-NH2 (not fully specified (residue 28); also: TFA salt) [Compound 243],0.54,2.97
Y[Aib]EGTFTSDYSI[Aib]LEKQAQ[Aib]AFVEWLIK([γGlu-γGlu-γGlu-γGlu-γGlu-γGlu-C20 diacid])GGPSSGASLRHYYNWLTRQRY-NH2 (also: TFA salt) [Compound 235],0.34,2.81
Y[Aib]EGTFTSDYSI[Aib]LEKQAQ[Aib]AFVQWLIK([εLys-γGlu-γGlu-γGlu-γGlu-γGlu-γGlu-γGlu-C20 diacid])GGPSEGASLRHYYNWLTRQRY-NH2 (also: TFA salt) [Compound 224],0.43,1.35
Y[Aib]EGTFTSDYSI[Aib]LEKQAQ[Aib]AFVQWLIK([εLys-γGlu-γGlu-γGlu-γGlu-γGlu-C20 diacid])GGPSEGASLRHYYNWLTRQRY-NH2 (also: TFA salt) [Compound 242],0.32,1.72
Y[Aib]EGTFTSDYSI[Aib]LEKQAQ[Aib]AFIEWLIK([AEEA-AEEA-γGlu-γGlu-γGlu-γGlu-C20 diacid])GGPSEGASLRHYYNWLTRQRY-NH2 (also: TFA salt) [Compound 231],0.33,1.43
B1,0.06,1.23
B2,0.3,1.41
B3,0.52,1.59
B4,0.22,1.42

# Biological target: T2, NPY2 receptor
# Assay: cell-based or functional assay
Binder,EC50 hNPY2R 0.5% hP (CreLuc) [nM],EC50 hNPY2R 100% hP (CreLuc) [nM]
Y[Aib]EGTFTSDYSI[Aib]LEKQAQ[Aib]AFVQWLIK([AEEA-AEEA-Glu-Glu-Glu-Glu-C20 diacid])GGPSEGASLRHYYNWLTRQRY-NH2 (also: TFA salt) [Compound 239],13.6,57
Y[Aib]EGTFTSDYSI[Aib]LEKQAQ[Aib]AFVQWLIKGGPSEGASLRHYYNWLTRQRY-NH2 (not fully specified (residue 28); also: TFA salt) [Compound 243],9.16,50.6
Y[Aib]EGTFTSDYSI[Aib]LEKQAQ[Aib]AFVEWLIK([γGlu-γGlu-γGlu-γGlu-γGlu-γGlu-C20 diacid])GGPSSGASLRHYYNWLTRQRY-NH2 (also: TFA salt) [Compound 235],13.9,77.7
Y[Aib]EGTFTSDYSI[Aib]LEKQAQ[Aib]AFVQWLIK([εLys-γGlu-γGlu-γGlu-γGlu-γGlu-γGlu-γGlu-C20 diacid])GGPSEGASLRHYYNWLTRQRY-NH2 (also: TFA salt) [Compound 224],10.6,31.6
Y[Aib]EGTFTSDYSI[Aib]LEKQAQ[Aib]AFVQWLIK([εLys-γGlu-γGlu-γGlu-γGlu-γGlu-C20 diacid])GGPSEGASLRHYYNWLTRQRY-NH2 (also: TFA salt) [Compound 242],7.54,28.8
Y[Aib]EGTFTSDYSI[Aib]LEKQAQ[Aib]AFIEWLIK([AEEA-AEEA-γGlu-γGlu-γGlu-γGlu-C20 diacid])GGPSEGASLRHYYNWLTRQRY-NH2 (also: TFA salt) [Compound 231],19.2,53
B1,10.2,44.2
B2,31,86.6
B3,11.6,49.4
B4,10.8,27.2
